The source of these data is publication PMC3785249.

Assay [1] has as its target human FcγRIIa^R131, extracellular region. Put plainly: binding screen of single-substitution variants (method not named in legend). The conditions noted are these: read off a plot.
For assay [2], the target named is human FcγRIIb, extracellular region (UniProt P31994). The assay is described as above. As to conditions: read off a plot.
The target in assay [3] is human FcγRIIa^H131, extracellular region (UniProt P12318). The description is as above. As to conditions: read off a plot.
Assay [4] concerns the target S267E/L328F variant of human IgG1 (human). Description: SPR; Biacore; antibody variants captured on a CM5 chip with immobilised antigen peptide or protein A/G, FcγR injected; kinetic analysis by global fitting with a 1:1 Langmuir model (KD). On the technique in general: SPR reads the build-up and loss of mass on a sensor chip optically.
Assay [5] concerns the target wild-type human IgG1 (human). Put plainly: SPR; KD for soluble hFcRn at pH 6.0; as described previously (Igawa et al., 2010).
Assay [6] deals with V12 variant of human IgG1 (human). The description is as above.

A word on the Kd: it is a measure of binding affinity in units of concentration. A high value points to lower affinity.

UniProt P31994, sequence (P31994 43-217): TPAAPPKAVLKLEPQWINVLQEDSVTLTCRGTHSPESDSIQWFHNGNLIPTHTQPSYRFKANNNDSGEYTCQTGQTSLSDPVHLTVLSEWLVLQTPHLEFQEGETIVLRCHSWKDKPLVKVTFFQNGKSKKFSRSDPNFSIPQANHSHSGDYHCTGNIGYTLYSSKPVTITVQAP
UniProt P12318, sequence (P12318 34-217): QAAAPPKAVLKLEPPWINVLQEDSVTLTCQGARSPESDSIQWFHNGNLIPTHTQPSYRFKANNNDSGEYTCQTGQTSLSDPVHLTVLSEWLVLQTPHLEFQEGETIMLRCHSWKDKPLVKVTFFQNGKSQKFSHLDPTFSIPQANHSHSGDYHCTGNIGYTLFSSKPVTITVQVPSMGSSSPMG

Consider wild-type human IgG1 L328F, for which the percent of parent (template antibody = 100) stood at 190 in assay [1], 300 in assay [2] and 53 in assay [3].

Take wild-type human IgG1 S267E: the percent of parent (template antibody = 100) in assay [1] turned out to be 190; in assay [2], 410; in assay [3], 100.

With “human FcγRIIa^R131, extracellular region (receptor)”, the fold increase in affinity over IgG1, KD (IgG1)/KD (Fc variant) in assay [4] was found to be 864 fold.

For the substance “recombinant, soluble human FcRn (from UniProt P55899 24-297) (complex)”, the figures for the Kd in assay [5] and in assay [6] were 1500 nM and 1400 nM, respectively.

Regarding wild-type human IgG1 P238D, the values for the percent of parent (template antibody = 100) in assay [1], in assay [2] and in assay [3] were 12, 210 and 2, respectively.

As for wild-type human IgG1 L328E, the percent of parent (template antibody = 100) is 180 in assay [2] and 15 in assay [3].
